Measurements: PMC4557121 (2015)

B1: A2 [not stated] / purified TRB3 protein [not stated] (parent complex)
chain 1: GGWLTRLLQTK
chain 2: MRATPLAAPAGSLSRKKRLELDDNLDTERPVQKRARSGPQPRLPPCLLPLSPPTAPDRATAVATASRLGPYVLLEPEEGGRAYQALHCPTGTEYTCKVYPVQEALAVLEPYARLPPHKHVARPTEVLAGTQLLYAFFTRTHGDMHSLVRSRHRIPEPEAAVLFRQMATALAHCHQHGLVLRDLKLCRFVFADRERKKLVLENLEDSCVLTGPDDSLWDKHACPAYVGPEILSSRASYSGKAADVWSLGVALFTMLAGHYPFQDSEPVLLFGKIRRGAYALPAGLSAPARCLVRCLLRREPAERLTATGILLHPWLRQDPMPLAPTRSHLWEAAQVVPDGLGLDEAREEEGDREVVLYG

Variants of: B1
Test: SPR; TRB3 immobilized on CM5 sensor chips

| Variant | Kd [nM] |
| --- | --- |
| chain 1 K11A | 73.1 |
| chain 1 Q9A | 35600 |
| chain 1 G1A | 1640 |
| chain 1 T10A | 381 |
| chain 1 R6A | 0.142 |
| chain 1 W3A | 3590 |
| chain 1 G2A | 402 |
| chain 1 L4A | 4320 |
| chain 1 T5A | 110 |
| chain 1 L7A | 11800 |
